Six molecules from patent US20250296996A1 (BROADWING BIO, published 2025) can be followed below.

Assay [1] has as its target T1, Pext-01 (huANGTPL7-FLAG multimer) (human, UniProt O43827 27-346).
T1 construct: also called PExt-1; human wild type ANGPTL7 multimer; not shown: FLAG tag
T1 sequence: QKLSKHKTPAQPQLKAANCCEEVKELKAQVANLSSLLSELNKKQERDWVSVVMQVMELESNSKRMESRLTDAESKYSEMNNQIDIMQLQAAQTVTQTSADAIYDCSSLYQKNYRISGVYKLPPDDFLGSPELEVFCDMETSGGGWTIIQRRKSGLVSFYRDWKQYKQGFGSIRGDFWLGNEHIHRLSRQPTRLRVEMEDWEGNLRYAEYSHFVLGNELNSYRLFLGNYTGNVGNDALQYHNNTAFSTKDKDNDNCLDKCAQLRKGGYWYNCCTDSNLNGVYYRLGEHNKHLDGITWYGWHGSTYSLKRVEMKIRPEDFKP
Put plainly: BLI Octet HTX; IgG on AHC sensor; Pext-01 at 100 nM; 1:1 fit; apparent KD. On the procedure:
Experiments were also conducted to determine the reactivity and dissociation constants (KD) of anti-ANGPTL7 antibodies with the human ANGPTL7 multimer protein. Binding experiments were performed on Octet HTX (ForteBio) in 1×PBS, pH 7.4, 0.1 mg/ml BSA, 0.05% Sodium Azide, and 0.02% Tween 20. Antibodies at a concentration of 50 nM were loaded on pre-hydrated AHC biosensors for 5 mi. The loaded sensors were dipped into Pext-01 (huANGTPL7-FLAG) at a concentration of 100 nM for 5 min of association, followed by 10 min of dissociation. […] Responses (nm) at the end of association were also determined (Table 7).
(In BLI a coated tip is dipped into the sample, and binding shifts an interference pattern.)

The target in assay [2] is T2, muANGPTL7-his (R&D Systems) (mouse, UniProt Q8R1Q3 22-337, limits assumed).
T2 construct: Bought protein; also called mouse ANGPTL7 protein
T2 sequence (looked up): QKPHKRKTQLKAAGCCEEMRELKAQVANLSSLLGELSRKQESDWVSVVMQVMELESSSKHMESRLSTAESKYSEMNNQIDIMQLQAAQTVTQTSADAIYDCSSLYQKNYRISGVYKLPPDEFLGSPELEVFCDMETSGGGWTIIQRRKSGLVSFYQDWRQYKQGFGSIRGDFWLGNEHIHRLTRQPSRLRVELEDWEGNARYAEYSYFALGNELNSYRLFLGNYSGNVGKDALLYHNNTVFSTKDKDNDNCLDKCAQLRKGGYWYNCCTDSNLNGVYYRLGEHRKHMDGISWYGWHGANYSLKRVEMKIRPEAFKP
Put plainly: BLI Octet HTX; IgG on AHC sensor; muANGPTL7-his at 200 nM. How it is done: (§1) Experiments were also conducted to determine the reactivity and dissociation constants (KD) of anti-ANGPTL7 antibodies with the mouse ANGPTL7 protein. Binding experiments were performed on Octet HTX (ForteBio) in 1×PBS, pH 7.4, 0.1 mg/mi BSA, 0.05% Sodium Azide, and 0.02% Tween 20. Antibodies at a concentration of 50 nM were loaded on pre-hydrated AHC biosensors for 5 mA. The loaded sensors were dipped into monovalent muANGPTL7-his (R&D Systems) at a concentration of 200 nM for 5 min of association, followed by 10 min of dissociation. […] Responses (nm) at the end of association were also determined (Table 5).

In a further assay the target is T3, P66 (rabbit ANGPTL7-his) (rabbit, UniProt G1T4P1 27-344).
T3 construct: mature; also called rabbit ANGPTL7 protein
T3 sequence: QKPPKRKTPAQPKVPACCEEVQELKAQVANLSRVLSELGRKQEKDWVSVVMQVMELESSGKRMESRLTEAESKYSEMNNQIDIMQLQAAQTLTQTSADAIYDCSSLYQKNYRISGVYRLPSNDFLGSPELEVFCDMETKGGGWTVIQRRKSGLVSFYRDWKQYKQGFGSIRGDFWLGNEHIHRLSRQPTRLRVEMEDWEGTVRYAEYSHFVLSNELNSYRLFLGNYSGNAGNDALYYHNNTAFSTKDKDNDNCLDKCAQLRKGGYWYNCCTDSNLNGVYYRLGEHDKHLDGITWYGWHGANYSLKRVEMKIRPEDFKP
Put plainly: BLI Octet HTX; IgG on AHC sensor; P66 at 200 nM; 1:1 fit. On the procedure:
as §1, with “([…])” for “(KD)”, “rabbit” for “mouse”, “Rx PBS,” for “1×PBS,”, “min.” for “mA.”, “P66 (rabbit ANGPTL7-his)” for “muANGPTL7-his (R&D Systems)”, “6).” for “5).”

The target of assay [3] is T4, P60 (huANGPTL7-Fibrinogen-his) (human, UniProt O43827 129-343).
T4 construct: also called human ANGPTL7 fibrinogen domain; not shown: C-terminal short linker and His tag
T4 sequence: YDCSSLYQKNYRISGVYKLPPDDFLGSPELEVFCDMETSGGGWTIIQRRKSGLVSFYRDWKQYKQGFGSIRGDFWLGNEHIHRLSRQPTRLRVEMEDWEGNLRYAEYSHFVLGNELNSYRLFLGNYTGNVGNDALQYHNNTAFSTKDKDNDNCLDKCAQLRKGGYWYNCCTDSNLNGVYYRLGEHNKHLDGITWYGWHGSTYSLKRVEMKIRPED
Briefly: BLI Octet HTX; IgG on AHC sensor; P60 at 200 nM. How it is done:
(§2) ANGPTL7 Antibody Kinetics. Experiments were conducted to determine the reactivity and dissociation constants (KD) of anti-ANGPTL7 antibodies with the human fibrinogen domain of the ANGPTL7 protein. Binding experiments were performed on Octet HTX (ForteBio) in 1×PBS, pH 7.4, 0.1 mg/ml BSA, 0.05% Sodium Azide, and 0.02 Tween 20. Antibodies at a concentration of 50 nM were loaded on pre-hydrated AHC biosensors for 5 min. The loaded sensors were dipped into monovalent P60 (huANGPTL7-Fibrinogen-his) at a concentration of 200 nM for 5 min association, followed by 10 min dissociation. […] Responses (nm) at the end of association were also determined (Table 2).

Assay [4] has as its target T4, P60 (huANGPTL7-Fibrinogen-his). Briefly: BLI Octet HTX; IgG on AHC sensor; P60 at 200 nM; 1:1 fit. On the procedure:
as §2

Assay [5] deals with T2, muANGPTL7-his (R&D Systems). Put plainly: BLI Octet HTX; IgG on AHC sensor; muANGPTL7-his at 200 nM; 1:1 fit. On the procedure: as §1
Another assay has as its target T5, P62 (huANGPTL7-his) (human, UniProt O43827 27-346).
T5 construct: not shown: C-terminal short linker and His tag
T5 chain: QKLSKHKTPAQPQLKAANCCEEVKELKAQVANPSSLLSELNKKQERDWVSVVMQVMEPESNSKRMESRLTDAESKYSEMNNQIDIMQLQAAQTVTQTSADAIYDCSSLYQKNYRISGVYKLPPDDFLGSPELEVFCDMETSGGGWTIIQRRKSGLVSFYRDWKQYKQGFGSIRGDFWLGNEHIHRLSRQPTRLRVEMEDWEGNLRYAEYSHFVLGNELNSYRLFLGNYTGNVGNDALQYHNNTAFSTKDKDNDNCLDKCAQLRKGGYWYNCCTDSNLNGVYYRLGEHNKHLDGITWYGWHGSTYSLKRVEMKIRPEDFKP
Briefly: BLI Octet HTX; IgG on AHC sensor; P62 0.343-250 nM; global 1:1 fit. How it is done:
Experiments were also conducted to determine the reactivity and dissociation constants (KD) of anti-ANGPTL7 antibodies with the human ANGPTL7-his protein. Binding experiments were performed on Octet HTX (ForteBio) in 1×PBS, pH 7.4, 0.1 mg/mi BSA, 0.05% Sodium Azide, and 0.02% Tween 20. To measure monovalent binding kinetics, antibodies at a concentration of 50 nM were loaded on pre-hydrated AHC biosensors for 5 min. The loaded sensors were dipped into monovalent P62 (huANGPTL7-his) at a range of concentration from 0.343-250 nM (a serial 3-fold dilution) for 5 min association, followed by 10 min dissociation.

B1: ATX-P-447 (antibody, human IgG1, kappa, N297A, V domains shown)
VH: EVQLVESGGGLVQPGGSLRLSCAASGFTISDYDMHWVRQTTGKGLEWVSGIDPDGDTYYPGSLKGRFTISRENAKNSLYLQMNSLRAGDTAVYYCTRGEDSSSSEDAFDIWGQGTMVTVSS
VL: not shown
notes: Full chains (VH + hIgG1-Agly-Fc)
Take B1: the Response in assay [1] amounted to 0.91 nm; with P66 (rabbit ANGPTL7-his), 0.65 nm; in assay [4], 0.08 nm; in assay [5], 0.12 nm. For the same molecule, the results for the binding result (in assay [2]; in assay [3]; with P62 (huANGPTL7-his)) were “no binding (tested: 200 nM)”, “no binding (tested: 200 nM)” and “binds”, respectively. The Kd in the assay with P66 (rabbit ANGPTL7-his) worked out at 3.33 nM.

B2: ATX-P-444 (antibody, human IgG1, kappa, N297A, V domains shown)
VH: EVQLVESGGGLVQPGGSLRLSCAASGFTLSVYDMHWVRQVSGKGLEWVSGIDPDGDTYYPGSVKGRFTISRENAKNSLYLQMNSLRVGDTAVYYCLRGEESNSSEDGFDIWGQGTMVTVSS
VL: not shown
notes: as for B1
With B2, the values for the Response in assay [1], in assay [4] and in assay [5] were 0.7 nm, 0.14 nm and 0.01 nm, respectively. Besides, the binding result in assay [2] and in assay [3] was “no binding (tested: 200 nM)” in each case.

B3: ATX-P-445 (antibody, human IgG1, kappa, N297A, V domains shown)
VH: EVQLVESGGGLVQPGGSLRLSCAASGFTFSSHDMHWVRQVTGKGLEWVSGIDPAGDTYYPDSVKGRFTISRENAKNSLYLQMNSLRAGDTAVYYCTRGEASSSSEDAFDIWGQGTMVTVSS
VL: not shown
notes: as for B1
Regarding B3, the Response in assay [1] turned out to be 0.8 nm; in assay [4], 0.12 nm; in assay [5], 0.01 nm. Besides, the binding result in assay [2] and in assay [3] was “no binding (tested: 200 nM)” throughout.

B4: ATX-P-446 (antibody, human IgG1, kappa, N297A, V domains shown)
VH: EVQLVESGGGLVQPGGSLRLSCAASGFTLSSYDMHWVRQVIGKGLEWVSGIDPDGDTYYPGSVKGRFTISREDAKNSLYLQMNSLRAGDTAVYYCTRGEDNSSSEDAFDIWGQGTMVTVSS
VL: not shown
notes: as for B1
On to B4, for which the Response in assay [1] was 0.75 nm; with P66 (rabbit ANGPTL7-his), 0.41 nm; in assay [4], 0.09 nm; in assay [5], 0.05 nm. Also, the binding result in assay [2] and in assay [3] was “no binding (tested: 200 nM)” in each case. The Kd with P66 (rabbit ANGPTL7-his) worked out at 3.19 nM.

B5: ATX-P-438 (antibody, human IgG1, kappa, N297A, V domains shown)
VH: QVQLVESGGGVVQPGRSLRLSCAASGFTFSSYGMHWVRQAPGKGLEWVAIISYDGNNKYYADSVKGRFTISRDNSKNTLYLQMNSLRDEDTAVYYCAKERGYSSSSGYYYYYMDVWGKGTTVTVSS
VL: EIVLTQSPGTLSLSPGERATLSCRASQSVSRSYLAWYQQKPGQAPRLLIIGASTRATGIPDRFSGSGSGTDFTLTISRLEPEDFAVYYCQQGQVIPPTFGQGTKVEIKR
notes: as for B1
Regarding B5, the Kd in assay [1] stood at 65.3 nM; with P66 (rabbit ANGPTL7-his) it was 7.16 nM. For the same molecule, the Response was 0.6 nm in assay [1], 0.42 nm with P66 (rabbit ANGPTL7-his), 0.08 nm in assay [4] and 0.01 nm in assay [5]. Moreover, the binding result in assay [2] and in assay [3] was “no binding (tested: 200 nM)” throughout.

B6: ATX-P-433 (antibody, IgG1, V domains shown)
VH: EVQLVESGGGLVQPGRSLRLSCAASGFTFDDFAMHWVRQGPGKGLEWVSGIGWNSGSIGYADSVKGRFTISRDNAKNSLYLQMNSLRAEDTALYYCAKAPDYGDYYFDYWGQGTLVTVSS
VL: DIQMTQSPSSLSASVGDRVTITCRASQSISIYLNWYQQKPGTAPKLLIYAASSLQSGVPSRFSGSGSGTDFTLTISSLQPEDFAAYYCQQSYTTPLTFGGGTKVEIKR
notes: as for B1
For the molecule B6, in assay [1], the Response amounted to 0.72 nm. In addition, in the assay with P66 (rabbit ANGPTL7-his), the Kd was 7.02 nM; the Response turned out to be 0.9 nm; the koff (in general, the first-order rate constant of dissociation) came to 0.000727 s⁻¹; the kon (as a rule, the rate constant with which the complex forms) was found to be 104000 M⁻¹ s⁻¹. In assay [4], this molecule came in with a Kd of 10.9 nM, a Response of 0.66 nm, an off-rate constant (koff) of 0.00243 s⁻¹ and an association rate constant (kon) of 223000 M⁻¹ s⁻¹. Moreover, in the assay with P62 (huANGPTL7-his), the Kd turned out to be 1.3 nM, the koff turned out to be 0.00056 s⁻¹ and the kon was 431000 M⁻¹ s⁻¹.
